Publication PMC9723502
Positions count from the first letter of the chain named. Numbers in names are those of the source.

B1: FimR2-G23A-G24U (structured_RNA)
RNA: GGGUUCAGGGACGUCAUUACGGGCAGGAUUGCCCACCC
B2: FimR2 ssRegion mutant (structured_RNA)
RNA: B1 RNA with G8A, G9A, A28G, U29A

Target: CsrA-His10 (Escherichia coli K-12, UniProt P69913 1-61)
Test: EMSA

Binder	binding result
B1	no binding
B2	binds
